Measured values taken from US12102667B2, “Polypeptides and antibiotics against gram-negative bacterium comprising the same” (priority 2021, dated 2024).

What was measured:
[1] = system: A. baumannii; assay: MIC, broth microdilution; format: cell-based, Acinetobacter baumannii
Description: (§1) The MIC of the LNT113 or antibiotic was determined using modification of the broth microdilution method in a 96-well, round bottom, microplate according to the previously described method (Heselpoth et al., 2019). Exponentially grown cells were diluted to a concentration of 10^6 CFU/ml in a CAA medium, and then cultured with recombinant LNT113 (1-64 μg/ml) or antibiotics at 35° C. for 20 hours. […] The MBC was defined as the lowest concentration of the antibacterial agent with no growth on a plate. All analyses were performed in duplicate.

[2] = system: E. coli; assay: Antibacterial activity analysis (colony count after 2 hours in buffer); format: cell-based, Escherichia coli
Description: (§2) The antibacterial activity of the purified protein was tested for E. coli and various K. pneumoniae strains. The bacterium were grown to an exponential phase (OD600=0.5) and harvested by centrifugation at 12,000×g for 3 minutes. Then, the pellets were washed with reaction buffer solution (20 mM Tris-HCl, pH 7.5) and diluted to about 10^6 cells/ml in the buffer solution. Then, 100 μl bacterial suspension was mixed with the purified endolysin of 100 μl in the reaction buffer solution and incubated at 37° C. for 2 hours. Finally, the mixture was diluted with PBS and loaded on an LB plate. After culturing at 37° C. overnight, the bacterial colonies were counted. All the analysis was performed in triplicate.
(§3) The same reaction was performed for the selected subject bacterium in 20 mM HEPES-NaOH, 150 mM NaCl [pH 7.4], and the unique antibacterial activity of Tris and dependence of endolysin for turgor pressure were excluded (FIG. 10a and FIG. 10b). […] The bacterial cells grown geometrically were cultured with 2 μM endolysin in low tonicity buffers (20 mM Tris-HCl, pH 7.5 or 20 mM HEPES, pH 7.5) or high tonicity buffers (buffer solution comprising 150 mM NaCl) at 37° C. for 2 hours. The cells treated with storage buffer solution (20 mM Tris-HCl, pH 7.5, 150 mM NaCl buffer solution (pH 7.5)) were used as a negative control group. The dotted line represents the detection limit (1 Log CFU/ml).
For this, endolysin EC340 at a concentration of 2 μM and each test bacterium were added to reaction buffer (20 mM Tris-Cl, pH 7.5) so that the final concentration was to be 200 μl, and were left at 37° C. for 2 hours. After 2 hours, the number of colonies of Acinetobacter baumannii, Pseudomonas aeruginosa and Escherichia coli was confirmed, and the result was shown in FIG. 3.

[3] = system: K. pneumoniae; assay: MIC, broth microdilution; format: cell-based, Klebsiella pneumoniae
Description: as §1

[4] = system: various gram-negative bacterium; assay: MIC, summary over Table 4 strains; format: cell-based; conditions: strains of Table 4
Description: as §1

[5] = system: K. pneumoniae; assay: Antibacterial activity analysis (colony count after 2 hours in buffer); format: cell-based, Klebsiella pneumoniae; conditions: 2 μM
Description: as §2, §3

B1: LNT113: fusion polypeptide: Cecropin A, (GGGGS)3 linker, mutant endolysin mtEC340; recombinant form with C-terminal His tag (protein)
chain: MKWKLFKKIEKVGQNIRDGIIKAGPAVAVVGQATQIAKGGGGSGGGGSGGGGSVSRNISNNGIKFTAAFEGFRGTAYRATPNEKYLTIGYGSYGPHVEPGKTITPGQGLLLLNRDMAKAVAAVDAVAHHSLTQSQFDAVCDLVYNAGAGVIAAATGTGKALRSGDVATLRAKLALFINQNGKPLLGLRRRTAGRLALFDGKPWQEAEAIGRAVKG
modifications: synthetic_Met+Cecropin A+GGGGS3 linker+mtEC340
notes: fusion polypeptide: Cecropin A, (GGGGS)3 linker, mutant endolysin mtEC340; recombinant form with C-terminal His tag
MIC ([1]; A. baumannii ATCC (first ATCC line, number not given)): 8 µg/mL
MIC ([1]; A. baumannii ATCC (second ATCC line, number not given)): 16 µg/mL
MIC ([1]; A. baumannii CCARM): 8 µg/mL
MIC ([1]; A. baumannii F4): 4 µg/mL
MIC ([1]; A. baumannii F65): 8 µg/mL
MIC ([1]; A. baumannii F66): 8 µg/mL
MIC ([1]; A. baumannii F67): 8 µg/mL
antibacterial activity (number of bacterium) ([2]; E. coli ATCC8739, ATCC25922, CCARM1A746, CCARM1B684, 2 μM, 2 hours, Tris-HCl pH 7.5): more excellent antibacterial activity
effect of adding NaCl on antibacterial activity ([2]; E. coli ATCC 8739, 2 μM, Tris or Hepes buffer with 150 mM NaCl): negative effect of salt presence was significantly reduced
dose and time dependence of antibacterial activity ([2]; E. coli ATCC 8739, 0.1-2.7 μM, 0.5 μM over time): antibacterial activity according to dose and time
antibacterial activity compared to Cecropin A and/or mtEC340 ([2]; E. coli ATCC8739, final concentration of 0.5 mM): enhanced antibacterial activity
increase in activity compared to mtEC340 ([2]; E. coli strains, 2 μM, 2 hours): ≤ 4 log
viable bacterial cells after culturing for 2 hours ([2]; all tested E. coli strains, 2 μM): No viable bacterial cells were detected
amount of bacterial cells after treatment ([2]; colistin-resistant E. coli FORC81, 2 μM, 2 hours): below the detection limit
MIC ([3]; K. pneumoniae ATCC 700603): 16 µg/mL
MIC ([3]; K. pneumoniae CCARK 10143): 4 µg/mL
MIC ([3]; K. pneumoniae F144): 16 µg/mL
MIC ([3]; K. pneumoniae Fil8): 16 µg/mL
MIC ([3]; K. pneumoniae KCTO 2208): 8 µg/mL
MIC ([3]; K. pneumoniae P1O4): 16 µg/mL
MIC range [4]: 4 to 32 µg/mL
antibacterial activity (number of bacterium) ([5]; K. pneumoniae ATCC700603, KCTC2208, CCARM10143, F85, 2 hours, Tris-HCl pH 7.5): more excellent antibacterial activity
effect of adding NaCl on antibacterial activity ([5]; K. pneumoniae KCTC 2208, Tris or Hepes buffer with 150 mM NaCl): negative effect of salt presence was significantly reduced
increase in activity compared to mtEC340 ([5]; K. pneumoniae strains, 2 hours): ≤ 4 log
viable bacterial cells after culturing for 2 hours ([5]; all tested K. pneumoniae strains): No viable bacterial cells were detected
